# The DeepSol protein solubility set
# Assay: soluble on expression in E. coli; label from the status in PepcDB or PDB records
row,Sequence,soluble on expression in E. coli
1,MIKIAPSILSADFSKLGEEIKDVEKGGADYIHVDVMDGHFVPNITIGPLIVEAIRPITSLPLDVHLMIENPDNYIPTFAKAGADIITVHVEACPHLHRTIQLIKSHGIKAGVVLNPHTPVSVIEHVLEDIDMVLLMTVNPGFGGQKFIHSVLPKIKQVAEMVKERNLEVEIEVDGGVNAETARLCVEAGANVLVAGSAVYNQKDRGEAIRVIRG,soluble
2,MEKFDVIIIGAGPAGLFAAYELVERSNMKVLIIDEGGDVDQRVCPMDQLGYCIGCKPCHIMSGVGGAGGLSDGTVNLRPDIGGDLTELTNDENYSWQLVWEVDQILLKHGAPRNLYKGDPDQIRYWERKAAQAGVKFIPIIQRHIGSDNTPRVIKSIKQYLESKGVKFLLWTKALEFNKGWVKVRRGKDVFTIEGKYIIVAPGRGGAEWFHEIAQKIGLKARHGPIDVGVRVEVPAIIMEPITSINHDPKFHIYTDTYDDFVRTFCTNPYGFVVEERYDGYVGVNGHSMRNKKSNNTNFAFLTRIELTEPVEDTTAYGRSIAQLATTIGGGRPILQRLGDLRRGRRSTWSRIRKSNVEPTLKHVTPGDIAMALPHRVVTNIIEGLEKLDKVIPGVASDHTLLYAPEIKYYAMKVEVNELLETSIENVFAAGDGAGLSRDIVNAAATGIMAARGILVKEGLYNLKDFKKPGNWKEKIESLEPEELEHHHHHH,soluble
3,SKLDSYTHLSFYEKRELFRKKLREIEGPEVTLVNEVDDEPCPSLDFQFISQYRLTQGVIPPDPNFQSGCNCSSLGGCDLNNPSRCECLDDLDEPTHFAYDAQGRVRADTGAVIYECNSFCSCSMECPNRVVQRGRTLPLEIFKTKEKGWGVRSLRFAPAGTFITCYLGEVITSAEAAKRDKNYDDDGITYLFDLDMFDDASEYTVDAQNYGDVSRFFNHSCSPNIAIYSAVRNHGFRTIYDLAFFAIKDIQPLEELTFDYAGAKDFSPVQSQKSQQNRISKLRRQCKCGSANCRGWLFG,soluble
4,MGSDKIHHHHHHMDRIGIDTWANISAEGWSSLLLGNGASIAIHKEFAYPTLHGIADAKGLLATTAPIFAKLGTTDFEHVLLACWYAEHVNGALGTPSAAISAAYEEVRTALIEAVHSVHPVHADVAADLQRVGAFASAFPTVVSLNYDITLYWAMLLFNAANGSWFKDAFHDGEFQTDWEYLRRPYGHAAGATLVFYPHGSLAVARDYLGDETKLSVGAGAAGDLLGTITRRWASGHYVPVFVSEGTSHQKVAAIRRSHYLTNVYEEVLPALGESLVVYGWSFDERDQHVLAAIAANPPKRMAVSVFTGQPDGDQQAFCLQVLKAVGRSLPGTEVTFFDSRSPGCWNNP,not soluble
5,MGSDKIHHHHHHMDLTQLRMFCLVAETGSVARAAEQLHRVPSNLTTRLRQLELELGTDLFIREKQRLRLSPIGHNFLCYAQRILALSEEAISMTRTGEPAGNFALGSMESTAATRLPTLLAAYHQRYPNVSLSLNTGTSGEIIERVRAGTLAAALVDGPVVYDELNGCSCFAEQLVLISDPSHSPITHARDASNDTLFAFRPSCSYRKRLENWFRQDGVVPGTIMEIHSYHAMLACVASGSGLAMLPYAVLESLPAGARVQVHELPPDIAAASTWLVWRRDAFGPNVEALKKLIIEQSAQSE,not soluble
6,MRYHIALVGRRNSGKSSLLNMLAGQQISIVSDIKGTTTDAVAKAYELQPLGPVTFYDTAGIDDEGTLGAMRVSATRRVLFRSDMALLVVDEQGLCPSDMALIDEIRQLQMPILMVFNKADICTPKAEDIAFCQNQSLPFIVVSAATGLAGKQLKQLMVELAPAEYKQEPLLAGDLYQAGDVILCVVPIDMAAPKGRLILPQVQILREALDRSAIAMVVKETELAQALSVVTPKLVISDAQAIKQVAAIVPDAVPLTTFSTLFARFKGDLAALATGADALDTLQDGDKVLISEACSHNVQEDDIGRVKLPRWINSYTGKQLEFVVTSGHDFPNDLEQYALVIHCGACMFNRNEMLRRIRECQRRQVPITNYGVAISKLQGVLPRVLTPFNRNPQQLEHHHHHH,soluble
7,QHQEAGAGDLCALCGEHLYVLERLCVNGHFFHRSCFRCHTCEATLWPGGYEQHPGDGHFYCLQHLPQTD,soluble
8,MSKLDLNALNELPKVDRILALAETNAELEKLDAEGRVAWALDNLPGEYVLSSSFGIQAAVSLHLVNQIRPDIPVILTDTGYLFPETYRFIDELTDKLKLNLKVYRATESAAWQEARYGKLWEQGVEGIEKYNDINKVEPMNRALKELNAQTWFAGLRREQSGSRANLPVLAIQRGVFKVLPIIDWDNRTIYQYLQKHGLKYHPLWDEGYLSVGDTHTTRKWEPGMAEEETRFFGLKRECGLHEGLEHHHHHH,soluble
9,MAAYKDLTKEELLELKSGLQAQFEEVKARGLKLDMSRGKPAAAQLNLSMEMMNILNSGTDLVCEDGVDCRNYGGLDGIAEAKQLLADMMEVPKDNVIVFGNSSLNVMYDTVARAMTHGIMGSTPWCKLDKVKFLCPVPGYDRHFAITEHFGIEMINVPMTATGPDMDLVEKLVSEDPAIKGIWCVPKYSNPQGITYSDETVYRFANLKPAAEDFRIFWDNAYCVHHLYEDKQDYLLEILMECKKAGNQDMVYKFSSTSKISFPGSGIAAIAASDANLADIRNMMKVQTIGHDKVNQLRHVRFFKDIHGIVEHMKKHADIMRPKFETVINTLERELGGLEIGSWIAPRGGYFISFDAMEGCAKAIVAKAKEAGLVMTGAGATFPYGKDPKDSNIRIAPSYPTPEELAVAAEIFVLSVKLVSIDKLLKNL,not soluble
10,MGSDKIHHHHHHMTTSYAKIEITGTLTVLTGLQIGAGDGFSAIGAVDKPVVRDPLSRLPMIPGTSLKGKVRTLLSRQYGADTETFYRKPNEDHAHIRRLFGDTEEYMTGRLVFRDTKLTNKDDLEARGAKTLTEVKFENAINRVTAKANLRQMERVIPGSEFAFSLVYEVSFGTPGEEQKASLPSSDEIIEDFNAIARGLKLLELDYLGGSGTRGYGQVKFSNLKARAAVGALDGSLLEKLNHELAAV,not soluble
11,MGPDTTSERVSEDLMQAVTCLKRVMVGMKSNGTDYVQEQTPSNSTTVICTLVKITGALERCIESNKAMNDVLNGKMKCTTCGATSVGLLSDCHDSATSTTTTVSHRSSEEPPRRKPSAAGGDHDDEELECSSIESRSIRSVSSSVHTSAEDDETNQTMMVPTDVADVINAIVAGTNGSSNSNTTSSSKSPQEEEEEHDLVMKSILSTTTSTSNTKLELSEKLENPLQDTALLDQFLQASLLGQTPTVTPASEENEEDKEQNAVLTSFLQILFANQQAGNAILDAGSSENDGSTSSSQPSPPADPTASLDSLAMFESLLAESMNGNVLDANTSSADQKAAARKRKSTPMKVPKSENGAGYICPMDGCNKVFKEKGSVHRHFVTHIGMRFNCDKCKASYTQKHALMLHQKIHANPDAYQCRGCGTNYTTQNGLRLHRQRNPACMEVSNALEFNTSLNTSISEALSGPLSKNSSPTKQMVSAP,not soluble
12,MLKISNSVTLQEWEIQLTPIRAQGNGGQNVNKVATAIHLRFDIHHSSLPEFYKERLLALSDSRITKDGVVIIKAQQFRTQEKNKEDALNRLQELIKAAALQDKKRIKTKPTRASQRRRLDSKNKQGAKKQQRKKVLYLEHHHHHH,not soluble
13,PMSEKQLAEVVERTVTPLMKAQAIPGMAVAVIYEGQPHYFTFGKADVAANKPVTPQTLFELGSISKTFTGVLGGDAIARGEISLGDPVTKYWPELTGKQWQGIRMLDLATYTAGGLPLQVPDEVKDNASLLRFYQNWQPQWKPGTTRLYANASIGLFGALAVKPSGMSYEQAITTRVFKPLKLDHTWINVPKAEEAHYAWGYRDGKAVHVSPGMLDAEAYGVKTNVQDMASWVMVNMKPDSLQDNSLRKGLTLAQSRYWRVGAMYQGLGWEMLNWPVDAKTVVEGSDNKVALAPLPAREVNPPAPPVNASWVHKTGSTGGFGSYVAFIPEKQLGIVMLANKSYPNPARVEAAYRILSAL,soluble
14,MELHIWPSDFGLPTIDVVSLQFLACSKMCASPVRVIQSTRPWRSPSGELPMVAQTEGEAKPVTDFEKFVDILKKCGQDVVIDADLTTIEKAQLDAFSCYLHHNLYPAVMHTFWTDELNYNTVTQYWYASHLHFPYNLYYLEKRRKKALRLLAGKNDTEILKEAFMALNTLSTKLGDNKFFCGNKPTSLDALVFGYLAPLLRVPLPNDRLQVQLSACPNLVRFVETVSSIYLPLGEDELKRQQANRKMWQSRISKAKADKEAAKTTEEASESLPEEPPMRDAILFTLGALTLSLVFAIHTGLIQVSVEEEISE,not soluble
15,MGSDKIHHHHHHMSRRHYNLPPLTTLTAFEAAARHLSFKDAAKELSVTPGAVSHQVKALEGELGVALFRRKHRGVDLTVPGQTLYDTLAGSLTRISQSLQSIRDQSSAGVVTVGSTTAMAAMWLSPAVIRFWRDHPEININQVVRDRAFTTSAELDLYIWYGREKDQRLDQFPLYRDRLLPVAAPERAAELAGADLDVLASQRLIHLEGDDISWTKWHDWFRQLGYSGPVASGIRVNNYSIALQAARDGAGLTLGWERLISPLITQGDLAIIGPHVLPAPERFFLVSKPDEELTPSARLLRDWIIEEASQITDEPC,not soluble
16,SADREGSVRVVGTAHVSSDSVEEVERVIDDEHPDTVAVELDEGRFRQMQGDAPDDLDATDLLKGSMAFQFLAYWLLSYAQRRLGEKFGIEPGADMQAAVDAANTAGADVALVDRDIQVTIQRFWARMSLPEKLRMGGELALGVTDSLTL,not soluble
17,MVDLYQLFKTRTPIIGVVHLLPLPTSPRWGGSLKAVIDRAEQEATALASGGVNGIIVENFFDAPFTKNQVDPAVVSAMTVVVQRIQNLVTLPVGLNVLRNDGKSAMAIASCVRAQFIRVNVLTGVMATDQGLIEGEAHELLRYRRELGSDVQILADVLVKHARPLSSPNLTVAVKDTIERGLADAVILSGWATGSPPNQEDLELACDAANGTPVFIGSGASWENIATLLQAANGVIVSSSLKRHGRIEQPIDPIRVSQFVEAAHRSWNSKGESKSVSSITIHSLEHHHHHH,not soluble
18,MGHEAKHPIIIGITGNIGSGKSTVAALLRSWGYPVLDLDALAARARENKEEELKRLFPEAVVGGRLDRRALARLVFSDPERLKALEAVVHPEVRRLLMEELSRLEAPLVFLEIPLLFEKGWEGRLHGTLLVAAPLEERVRRVMARSGLSREEVLARERAQMPEEEKRKRATWVLENTGSLEDLERALKAVLAELTGGAKEGRG,soluble
19,MGSDKIHHHHHHMLFLQNTPLPEIIDGLPNISGWEAEVLSVVNNDAPVFLPTTNIKLEDVNAVFAIALHMHQPTIPAGDGGELISNLQYMFAHPHEGDNHNAGPFAYCYSRMGEFIPELVSQGCNPRVMLDYSGNLLWGLRQMGRNDVLDSLKGVTGDRTYQPHVEWLGTMWGHAVVPSTPIKDIKLHILAWQQHFAAIFGWEALARVKGFSPPEMHLPNHPDTLFQFVKALKECGYRWLLVQEHTVETIDGQSLTNRHLPHRLLARNSQGETISIIALIKTQGSDTKLVAQMQPYYEAKTLSKRRLGNVEIPPIVSQIGDGENGGVMMNEFPSAFKQAWWDMVNHGGGKSGVVGVCGTEYLELIEAAGVKPEDFPSCQPVGQHQIWQRVAPDNNQPEAVENAIQEIKQINPNFHLEGASWTNHISWVRGYENVLSPMYELSSLFHQKFDNLLLNNSYSSITKQPDYRQALLYNLLLQTSCFRYWGQGAWTDYAREIYQRGKSLLTS,not soluble
20,SLVQHFDTLLVNIGQLLPMESKGPKRGKEMSELQLLEHAALGIRDGKVAFIGTMVEADTFTANQMIDCQGKLVTPGLVDPHTHLIFGGSREHEMALKQQGVPYLEILKNGGGILATVEATRAASEEELITKAICHLNRMLSYGVTTIEAKSGYGLDRETEWKQLRAAKAVGEQHPIDIVSTFLGAHAIPTSHRNDPDRFLDEMADMLGEIKEQNLAEFVDIFTETGVFTVEQSRTFLQKAKERGFGLKLHADEIDPLGGAELAGELGAISADHLVGASDQGIQKMAAAGTIACLLPGTTFYLGKDTYARARDMIDQGLAVTISTDFNPGSSPTENLQLIMSIAALRLKMTPEEIWHAVTVNGAHAIGRGDTAGQLAVGRAADVVVWDAKNYYYVPYHYGVNHVHSVWKKGEVVYERRRAFEGLSISR,soluble
